The source of these data is PMC8529494, “KAT6A Acetylation of SMAD3 Regulates Myeloid‐Derived Suppressor Cell Recruitment, Metastasis, and Immunotherapy in Triple‐Negative Breast Cancer” (Advanced Science, 2021).

This experiment concerns the target T1, (His)6-TRIM24 (UniProt O15164 1-1050).
T1 construct: Tripartite motif-containing 24 (TRIM24); also called tripartite motif-containing 24; source: recombinant, purified
T1 sequence (looked up): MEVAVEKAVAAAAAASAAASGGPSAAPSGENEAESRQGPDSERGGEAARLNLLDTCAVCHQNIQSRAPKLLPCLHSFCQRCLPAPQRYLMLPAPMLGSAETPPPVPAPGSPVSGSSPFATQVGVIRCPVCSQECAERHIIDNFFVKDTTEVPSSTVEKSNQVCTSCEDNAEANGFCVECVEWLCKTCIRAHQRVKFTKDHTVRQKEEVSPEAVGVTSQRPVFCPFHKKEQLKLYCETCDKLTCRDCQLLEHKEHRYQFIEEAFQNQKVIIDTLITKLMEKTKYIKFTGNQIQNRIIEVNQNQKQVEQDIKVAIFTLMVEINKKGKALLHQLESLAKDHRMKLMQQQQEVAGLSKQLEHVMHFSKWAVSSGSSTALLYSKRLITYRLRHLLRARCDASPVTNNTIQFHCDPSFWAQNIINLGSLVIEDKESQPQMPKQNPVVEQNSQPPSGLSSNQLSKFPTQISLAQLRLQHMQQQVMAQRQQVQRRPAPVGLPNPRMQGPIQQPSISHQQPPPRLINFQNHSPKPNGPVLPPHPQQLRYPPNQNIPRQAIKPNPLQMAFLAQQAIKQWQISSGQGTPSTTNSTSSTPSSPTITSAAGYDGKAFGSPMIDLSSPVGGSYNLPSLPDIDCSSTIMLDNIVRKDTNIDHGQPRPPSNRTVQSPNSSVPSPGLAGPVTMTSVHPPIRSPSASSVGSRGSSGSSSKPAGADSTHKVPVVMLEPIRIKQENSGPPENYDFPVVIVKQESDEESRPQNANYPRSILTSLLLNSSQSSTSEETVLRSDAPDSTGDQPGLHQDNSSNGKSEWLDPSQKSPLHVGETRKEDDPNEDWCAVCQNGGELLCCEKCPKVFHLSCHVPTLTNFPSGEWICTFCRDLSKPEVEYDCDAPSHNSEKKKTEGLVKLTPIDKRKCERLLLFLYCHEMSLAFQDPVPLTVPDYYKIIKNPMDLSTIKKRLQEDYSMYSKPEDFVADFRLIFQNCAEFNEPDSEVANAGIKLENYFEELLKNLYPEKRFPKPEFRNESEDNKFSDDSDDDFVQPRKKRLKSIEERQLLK
The experiment is described as follows: pull-down; GST pull-down with purified GST-SMAD3 and (His)6-TRIM24, western blot with anti-TRIM24 and anti-SMAD3. As to conditions: both partners purified.

B1: GST-SMAD3 (natural protein, UniProt P84022 1-425, looked up)
chain: MSSILPFTPPIVKRLLGWKKGEQNGQEEKWCEKAVKSLVKKLKKTGQLDELEKAITTQNVNTKCITIPRSLDGRLQVSHRKGLPHVIYCRLWRWPDLHSHHELRAMELCEFAFNMKKDEVCVNPYHYQRVETPVLPPVLVPRHTEIPAEFPPLDDYSHSIPENTNFPAGIEPQSNIPETPPPGYLSEDGETSDHQMNHSMDAGSPNLSPNPMSPAHNNLDLQPVTYCEPAFWCSISYYELNQRVGETFHASQPSMTVDGFTDPSNSERFCLGLLSNVNRNAAVELTRRHIGRGVRLYYIGGEVFAECLSDSAIFVQSPNCNQRYGWHPATVCKIPPGCNLKIFNNQEFAALLAQSVNQGFEAVYQLTRMCTIRMSFVKGWGAEYRRQTVTSTPCWIELHLNGPLQWLDKVLTQMGSPSIRCSSVS
notes: SMAD3; also called recombinant GST-SMAD3; source: recombinant, purified
For the molecule B1, the binding result was “binds”.
